The results in this text go back to patent publication US20260250370.

This series relates to TGFβ1 C4S Small Latent Complex (SLC).
Chain of TGFβ1 C4S Small Latent Complex (SLC) (chain, as listed by the source): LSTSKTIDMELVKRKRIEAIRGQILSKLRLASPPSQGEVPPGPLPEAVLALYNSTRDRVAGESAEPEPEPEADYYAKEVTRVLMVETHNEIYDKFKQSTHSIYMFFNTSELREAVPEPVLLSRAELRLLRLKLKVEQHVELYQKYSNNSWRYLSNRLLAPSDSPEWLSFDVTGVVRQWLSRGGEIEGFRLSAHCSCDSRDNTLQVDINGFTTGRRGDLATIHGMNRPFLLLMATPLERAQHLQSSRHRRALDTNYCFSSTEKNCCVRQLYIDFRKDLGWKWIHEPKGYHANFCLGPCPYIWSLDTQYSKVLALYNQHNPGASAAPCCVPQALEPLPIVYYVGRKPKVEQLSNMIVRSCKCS

For the substance kallikrein, the “kallikrein digestion of LAP (gel)” value is “LAP can be cleaved by kallikrein into a R^58 LAP-D fragment and a L^59 LAP-D fragment”.
